The target of the assay is POPDC1 tagged with Venus (YFP acceptor for FLIM-FRET with TREK-1) (mouse) (UniProt Q9ES83). Kind of assay: FRET or BRET. Background: Bioluminescence resonance energy transfer reports proximity on the nanometre scale.
Sequence of POPDC1 tagged with Venus (YFP acceptor for FLIM-FRET with TREK-1) (mouse) (Q9ES83 whole entry): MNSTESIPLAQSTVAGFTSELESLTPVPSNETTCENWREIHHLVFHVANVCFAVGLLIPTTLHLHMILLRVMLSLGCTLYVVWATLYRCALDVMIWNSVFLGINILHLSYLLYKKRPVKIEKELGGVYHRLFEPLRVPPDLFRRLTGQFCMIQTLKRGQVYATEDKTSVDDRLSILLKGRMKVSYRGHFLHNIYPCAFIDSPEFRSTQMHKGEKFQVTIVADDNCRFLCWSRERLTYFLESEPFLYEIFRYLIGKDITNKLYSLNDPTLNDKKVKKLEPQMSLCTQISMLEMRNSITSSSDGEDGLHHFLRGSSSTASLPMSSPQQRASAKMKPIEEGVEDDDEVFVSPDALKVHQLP

Sequence of Cerulean-TREK-1 (natural protein) (O95069 whole entry): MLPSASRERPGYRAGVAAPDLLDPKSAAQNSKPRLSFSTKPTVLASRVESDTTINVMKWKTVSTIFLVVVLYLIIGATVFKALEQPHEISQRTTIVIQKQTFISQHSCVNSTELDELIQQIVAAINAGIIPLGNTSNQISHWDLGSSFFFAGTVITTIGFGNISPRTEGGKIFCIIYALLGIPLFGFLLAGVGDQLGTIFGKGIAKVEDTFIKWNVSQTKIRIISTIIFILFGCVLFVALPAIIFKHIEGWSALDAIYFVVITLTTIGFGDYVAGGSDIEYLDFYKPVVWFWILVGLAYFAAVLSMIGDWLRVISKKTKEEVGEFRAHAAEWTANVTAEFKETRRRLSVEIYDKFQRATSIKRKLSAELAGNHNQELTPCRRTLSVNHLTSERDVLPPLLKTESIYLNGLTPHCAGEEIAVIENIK

Cerulean-TREK-1 (natural protein) registered an FRET efficiency of 18%.

The values above are taken from paper doi:10.1101/2021.12.21.473719.
